Experiments:
[1] = test system: phosphorylated FGFR in SNU-16 cells; experiment: Inhibition of FGFR2 signaling in SNU-16 cells (Western blot of pFGFR); assay type: cell-based; settings: antibody 10 μg/ml, 2 hours
Method: Inhibition of the FGFR2 signaling pathway by the humanized antibodies was investigated. SNU-16 cells were grown in RPMI-1640 medium with 10% FBS, collected and washed twice with free medium and then seeded in 12-well plates at 1.5E6 cells/well in serum-free RPMI-1640. The plates were incubated at 37° C., 5% CO2, and 95% humidity in an incubator overnight. Anti-FGFR2b antibodies at a concentration of 10 μg/ml were added to the assay plates. Recombinant human FGF7 or FGF10 protein (10 ng/ml) in the presence of heparin (5 μg/ml) was added to the assay plates. The plates were incubated in a 37° C., 5% CO2, 95% humidity incubator for 2 hours. Following 2 hours incubation, cells were collected and washed twice with cold PBS. NP40 lysis buffer containing 1×PMSF and 1× Protease plus phosphatase inhibitors were added to the cell pellets. The mixture was pipetted up and down to suspend the pellet. The mixture was inverted gently and each placed for 10 minutes on ice, for a total of 30 minutes. The mixture was centrifuged at 12000× rpm for 10 minutes to pellet the cell debris. The supernatant was transferred to a new tube to quantify total protein concentration by BCA Kit. The protein samples were then split and stored at −80° C. for further Western blotting to detect the expression of pFGFR and total FGFR2. […]

[2] = molecular target: human FGFR2b (Homo sapiens, UniProt P21802); experiment: ELISA protein binding to human FGFR2b (Example 4); settings: coated protein
Method: (§1) The binding affinity and specificity of purified anti-FGFR2b antibodies were determined by ELISA and FACS. […] After incubation and washing, the plates were developed with HRP substrate and absorbance was measured. […] After washing twice with FACS buffer, diluted Alexa Fluor 647 goat anti-human IgG secondary antibody was added and incubated with cells for 30 minutes at 4° C. in the dark. After washing twice with FACS buffer, cells were resuspended with FACS buffer and read using a Becton Dickinson LSR FortessaTM cell analyzer. Non-specific binding of these antibodies was evaluated by FACS binding against parental 293T blank cells. Titration curves were generated using a sigmoidal dose-response of nonlinear fit from GraphPadTM Software by Dotmatics.

[3] = molecular target: T1, Murine FGFR2b OE cells (Mus musculus, UniProt P21803); experiment: FACS cellular binding, murine FGFR2b OE cells (Example 4)
T1 construct: expressed in transfected cells; host or cells: 293T
Method: as §1

[4] = molecular target: Human FGFR2c OE cells (Homo sapiens, UniProt P21802); experiment: FACS cellular binding, human FGFR2c OE cells (Example 4)
Method: as §1

[5] = test system: co-inoculated HSC-39+SNU-5 xenografts; experiment: Co-inoculated HSC-39+SNU-5 gastric cancer xenografts; assay type: in vivo, BALB/c nude mice; settings: HSC-39:SNU-5 ratios of 2:1 and 5:1, single dose 10 mpk i.v.
Method: HSC-39 and SNU-5 were cultured in Dulbecco's modified Eagle's medium (DMEM), supplemented with 10% (v/v) fetal bovine serum, 100 U/ml penicillin, and 100 μg/mL streptomycin. Cells were incubated in a humidified incubator with 5% CO2 at 37° C. On the day of implantation, cells were collected and washed with serum-free medium. Six- to eight-week-old female BALB/c nude mice were purchased and housed in ventilated cages, given food and water ad libitum, and allowed to acclimate for approximately 1 week prior to inoculation. A total of 5×10^6 HSC-39 and SNU-5 cancer cells mixed with matrigel at a ratio of 2:1 or 5:1 were implanted subcutaneously into the mouse flank. […] Tumor volumes were measured twice weekly. Data is presented as mean tumor volume ±standard error of the mean (SEM). In the vehicle group at a 2:1 HSC-39:SNU-5 ratio, there were ˜50% FGFR2b positive cells in the tumor at the starting point with ˜40% at the end point. In the vehicle group at a 5:1 HSC-39:SNU-5 ratio, there were ˜60% FGFR2b positive cells in the tumor at the starting point with ˜20% at the end point.

[6] = test system: BaF3_hFGFR2b OE cells; experiment: Ligand-induced proliferation inhibition assay in BaF3_hFGFR2b OE cells; assay type: cell-based; settings: antibody 10 μg/ml, heparin 5 μg/ml, 72 hours
Method: The inhibition activity of antibody on ligand-induced cell proliferation was evaluated in an FGFR2b engineered BaF3 cell line system (BaF3_hFGFR2b OE). BaF3 cells are dependent on interleukin-3 (IL-3) for growth. The BaF3 system allows for testing of kinases and kinase inhibitors. Some protein kinases can render BaF3 cells to be independent of IL-3, whereas kinase inhibitors antagonize this effect. Cells were seeded in 96-well plates at 30,000 cells/well in RPMI-1640 medium containing 10% fetal bovine serum. Anti-FGFR2b antibodies at a concentration of 10 μg/ml were added to the assay plates. Recombinant human FGF7 or FGF10 protein (40 ng/ml) in the presence of heparin (5 μg/ml) was added to the assay plates. The plates were incubated at 37° C., 5% CO2, 95% humidity in an incubator for 72 hours. Following incubation, 50 μl Cell Titer Glo reagent was added to each well and the plates were mixed for 1 min and then incubated at RT for 10 min. Luminescence signals were detected and recorded.
The Ba/F3 system is used to investigate downstream oncogenic signaling pathways and the susceptibility of driver variants to therapeutics. Driver-addicted Ba/F3 cells die when the driver-engaged signaling pathway is inhibited, and this effect can be rescued by re-introduction of […].
FIGS. 6 and 7 show the results of Ba/F3 proliferation assays. […]

[7] = patients; cited from earlier work
[8] = test system: 293T blank cells; experiment: FACS non-specific binding, parental 293T blank cells (Example 4)
Method: as §1

[9] = molecular target: Human FGFR2c (Homo sapiens, UniProt P21802); experiment: ELISA protein binding to human FGFR2c (Example 4); settings: coated protein
Method: as §1

[10] = molecular target: T2, soluble human FGFR2b proteins (Homo sapiens, UniProt P21802); experiment: SPR binding kinetics (Biacore 8K, Example 5); settings: room temperature
T2 construct: soluble human FGFR2b proteins (his tag, in-house generated); His tag; made in house
Method: The binding affinity and kinetics of purified anti-FGFR2b antibodies were determined by surface plasmon resonance (Biacore 8K, GE Life Sciences) at room temperature. Briefly, mouse anti-human IgG Fc antibody was immobilized via amine coupling onto a activated CM5 biosensor chip (Cat. No. BR100530, GE Life Sciences). Purified monoclonal antibody candidates were flowed over the chip surface and captured by anti-human IgG antibody. Then a serial dilution of soluble human FGFR2b proteins (his tag, in-house generated) were injected over the antibodies captured surface and changes in surface plasmon resonance signals were analyzed to calculate the association rates (kon) and dissociation rates (koff) by using the one-to-one Langmuir binding model (BIA Evaluation Software, GE Life Sciences). The equilibrium dissociation constant (KD) was calculated as the ratio koff/kon.

[11] = molecular target: T3, Human FGFR2b OE cells (Homo sapiens, UniProt P21802); experiment: FACS cellular binding, human FGFR2b OE cells (Example 4)
T3 construct: expressed in transfected cells; host or cells: 293T
Method: as §1

T2 sequence (P21802 22-378 isoform P21802-3 limits assumed): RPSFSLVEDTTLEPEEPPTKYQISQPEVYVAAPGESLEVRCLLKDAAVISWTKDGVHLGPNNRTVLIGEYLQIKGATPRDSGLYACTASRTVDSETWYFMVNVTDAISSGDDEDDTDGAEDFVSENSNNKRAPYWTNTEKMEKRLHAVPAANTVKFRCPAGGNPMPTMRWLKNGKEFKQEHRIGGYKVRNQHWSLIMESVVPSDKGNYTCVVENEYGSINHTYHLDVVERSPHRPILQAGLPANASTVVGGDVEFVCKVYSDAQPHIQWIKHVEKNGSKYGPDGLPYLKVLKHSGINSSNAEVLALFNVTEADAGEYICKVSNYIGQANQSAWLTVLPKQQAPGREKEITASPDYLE
human FGFR2b, sequence (P21802 22-822 isoform P21802-3 limits assumed): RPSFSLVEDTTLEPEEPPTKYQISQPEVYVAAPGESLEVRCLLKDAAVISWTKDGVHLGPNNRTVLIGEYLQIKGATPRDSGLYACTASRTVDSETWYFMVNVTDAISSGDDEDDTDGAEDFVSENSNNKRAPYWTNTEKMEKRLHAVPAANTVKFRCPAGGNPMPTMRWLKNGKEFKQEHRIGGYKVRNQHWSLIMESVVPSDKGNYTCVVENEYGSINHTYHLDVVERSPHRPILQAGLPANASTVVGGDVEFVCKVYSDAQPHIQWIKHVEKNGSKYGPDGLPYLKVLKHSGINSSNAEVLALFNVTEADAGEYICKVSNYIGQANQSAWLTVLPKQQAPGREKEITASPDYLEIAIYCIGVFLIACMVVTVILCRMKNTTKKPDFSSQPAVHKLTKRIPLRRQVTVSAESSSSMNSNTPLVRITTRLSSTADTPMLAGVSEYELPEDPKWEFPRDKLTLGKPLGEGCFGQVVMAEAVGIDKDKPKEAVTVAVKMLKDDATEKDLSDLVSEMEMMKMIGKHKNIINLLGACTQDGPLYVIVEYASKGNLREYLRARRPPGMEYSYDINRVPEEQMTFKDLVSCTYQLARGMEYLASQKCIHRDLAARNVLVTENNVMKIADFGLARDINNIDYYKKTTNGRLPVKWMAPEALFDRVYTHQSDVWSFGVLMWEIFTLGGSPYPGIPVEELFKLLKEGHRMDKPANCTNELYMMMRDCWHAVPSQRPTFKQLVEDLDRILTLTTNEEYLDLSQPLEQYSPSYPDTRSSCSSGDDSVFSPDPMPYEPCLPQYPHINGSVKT
T3 sequence (P21802 22-822 isoform P21802-3 limits assumed): as above
Human FGFR2c OE cells, sequence (P21802 22-821): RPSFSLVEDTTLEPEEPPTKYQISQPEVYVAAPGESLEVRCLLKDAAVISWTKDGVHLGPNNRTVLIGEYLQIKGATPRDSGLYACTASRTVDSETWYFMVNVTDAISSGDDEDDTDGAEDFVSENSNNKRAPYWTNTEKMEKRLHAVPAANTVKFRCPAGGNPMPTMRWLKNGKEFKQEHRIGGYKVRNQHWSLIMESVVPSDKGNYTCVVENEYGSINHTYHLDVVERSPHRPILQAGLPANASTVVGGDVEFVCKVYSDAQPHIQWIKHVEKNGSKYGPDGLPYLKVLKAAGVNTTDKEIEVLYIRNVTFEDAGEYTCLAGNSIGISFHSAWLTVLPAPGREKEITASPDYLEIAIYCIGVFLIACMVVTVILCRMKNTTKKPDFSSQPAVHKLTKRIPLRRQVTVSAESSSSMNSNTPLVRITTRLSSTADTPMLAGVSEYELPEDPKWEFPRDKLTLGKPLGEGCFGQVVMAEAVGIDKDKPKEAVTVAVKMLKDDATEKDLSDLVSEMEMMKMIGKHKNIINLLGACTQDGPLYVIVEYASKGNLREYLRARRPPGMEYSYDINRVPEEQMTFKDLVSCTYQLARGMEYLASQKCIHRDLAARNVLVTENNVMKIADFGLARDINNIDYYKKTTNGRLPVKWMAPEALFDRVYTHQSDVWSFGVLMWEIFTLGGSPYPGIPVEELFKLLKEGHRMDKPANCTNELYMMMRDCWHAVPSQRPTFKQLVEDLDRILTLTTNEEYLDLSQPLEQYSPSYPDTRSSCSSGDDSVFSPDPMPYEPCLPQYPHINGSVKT
Human FGFR2c, sequence (P21802 22-821): as above
T1 sequence (P21803 22-707 isoform P21803-2 limits assumed): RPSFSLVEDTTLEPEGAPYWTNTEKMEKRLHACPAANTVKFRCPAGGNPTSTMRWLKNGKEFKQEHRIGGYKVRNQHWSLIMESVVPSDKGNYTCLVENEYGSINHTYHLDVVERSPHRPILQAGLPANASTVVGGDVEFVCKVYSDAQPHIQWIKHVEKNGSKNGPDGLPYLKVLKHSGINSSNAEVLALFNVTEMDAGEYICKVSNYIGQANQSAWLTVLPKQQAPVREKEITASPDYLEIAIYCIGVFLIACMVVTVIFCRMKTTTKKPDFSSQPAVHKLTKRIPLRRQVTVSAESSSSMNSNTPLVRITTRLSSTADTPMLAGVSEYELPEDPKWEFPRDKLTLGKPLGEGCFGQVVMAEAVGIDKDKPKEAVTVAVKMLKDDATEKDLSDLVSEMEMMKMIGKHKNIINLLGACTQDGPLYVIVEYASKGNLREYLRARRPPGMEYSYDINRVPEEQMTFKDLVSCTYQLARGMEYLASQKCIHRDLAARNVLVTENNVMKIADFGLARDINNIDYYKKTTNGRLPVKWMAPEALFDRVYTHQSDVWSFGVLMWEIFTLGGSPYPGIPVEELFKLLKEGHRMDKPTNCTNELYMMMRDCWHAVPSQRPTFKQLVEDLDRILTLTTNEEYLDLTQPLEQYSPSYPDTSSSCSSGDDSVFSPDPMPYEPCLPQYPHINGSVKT

BGA1421: comparator antibody bemarituzumab, un-conjugated; HC SEQ ID NO: 35, LC SEQ ID NO: 36 [reference compound]
FGF7-induced FGFR phosphorylation ([1]; FGF7 10 ng/ml): down-regulation of phosphorylated FGFR
FGF10-induced FGFR phosphorylation ([1]; FGF10 10 ng/ml): down-regulation of phosphorylated FGFR
EC50 [2]: 0.61 nM
Human FGFR2b binding Emax(OD450) [2]: 2.62 OD450
EC50 [3]: 0.81 nM
Human FGFR2c OE cells binding Emax [4]: 40 MFI
tumor growth [5]: inhibited tumor growth but was less potent
inhibition of FGF7-induced BaF3_hFGFR2b cell proliferation ([6]; FGF7 40 ng/ml): potently inhibit
inhibition of FGF10-induced BaF3_hFGFR2b cell proliferation ([6]; FGF10 40 ng/ml): potently inhibit
treatment discontinuation rate caused by corneal toxicity [7]: 26%
293T blank cells binding Emax [8]: 18 MFI
Human FGFR2c binding Emax(OD450) [9]: 0.09 OD450
ka ([10]; antibody captured): 104000 M⁻¹ s⁻¹
kd ([10]; antibody captured): 0.00232 s⁻¹
Kd ([10]; koff/kon): 22.2 nM
EC50 [11]: 0.48 nM

— US20250222125A1, “Anti-FGFR2b Antibodies, Conjugates and Methods of Use” (BeiGene, Ltd., priority 2024, published 2025)
